Data from patent US20200129630A1, “METHODS FOR TREATING CANCER” (BicycleRD Limited, priority 2018, published 2020).
Numbered stars: 1 amine (or outer) side, 2 acyl side, 3 side chain; on linkers, the order of the positions; unused ones are H or OH. Bridge positions count the residues as written; N and C are the ends. Square brackets hold non-standard residues; d marks the D form. Peptide text beside a SMILES is read from it. * marks the point of attachment. X1 = COc1cc2cc(c1Cl)N(C)C(=O)C[C@H](OC(=O)[C@H](C)N(C)C(=O)CCSSC(C)CCC(=O)*)[C@]1(C)O[C@H]1[C@H](C)[C@@H]1C[C@@](O)(NC(=O)O1)[C@H](OC)/C=C/C=C(\C)C2; 1Nal = N[C@@H](Cc1cccc2ccccc12)C(=O)O; TBMB = c1c(C[*:1])cc(C[*:3])cc1C[*:2]; Tle = CC(C)(C)[C@H](N)C(=O)O; βAla = NCCC(=O)O; Sar = CNCC(=O)O

Legend:
[1] = Preclinical PK and toxicokinetics, summary across studies; design: species or system mice and rats; details: mouse and rat, in vivo, intravenous, read-out: half-life estimate
Excerpt: BT1718 has low molecular weight (3.5 kDA) in comparison to other conjugated toxin approaches, which enables rapid penetration of tumor tissue. […] Hypothesized advantages over ADCs therefore include reduced systemic exposure of normal tissues to circulating BT1718, the ability to manage toxicity during recovery periods, as well as the improved tumor penetrance. Other potential advantages include a fixed peptide:conjugate ratio of 1:1 (c.f. ADCs where variable conjugation results in mixed populations) and with more scalable manufacturing as a small molecule (c.f. biologics such as ADCs).

[2] = Plasma protein binding, monkey; assay type: in vitro ADME; details: read-out: free fraction
Protocol: (§1) Plasma protein binding of BT1718 was also assessed. The mean plasma protein binding of the BT1718 peptide ranged from 87% to 98%, with the free fraction of BT1718 being 13% in human, 2.6% in rats, 7.5% in mice, 3.8% in monkey and 1.5% in dog plasma, the results had no correlation to the plasma and whole blood stability data. […] Plasma protein binding of unconjugated DM1, has previously been reported, with the unbound fraction being 7% in human and monkey and 3% in rat.

[3] = target: hemopexin domain of MT1-MMP (Homo sapiens, UniProt P50281); experiment: Binding to hemopexin domain of MT1-MMP
Protocol: Bicycle drug conjugates (BDCs) with a variety of linkers and cytotoxic payloads were prepared which retained binding to MT1.
BT1718 is a BDC that binds to MT1-MMP and upon cleavage of its disulphide linker, releases the cytotoxic tubulin inhibitor, DM1 (also referred to as DM1-SH).

[4] = Stability in plasma in vitro, monkey; assay type: in vitro ADME; details: 37° C.
Protocol: (§2) The stability of BT1718 was assessed in plasma and whole blood from humans, monkey, dog, mouse and rat. […] The mechanism for the difference in stability of the BT1718 peptide in whole blood between the different species is unknown.

[5] = Stability in plasma in vitro, dog; assay type: in vitro ADME; details: 37° C.
Protocol: as §2

[6] = test system: NCI-H1975; experiment: In vitro cytotoxicity (CellTiter-Glo) NCI-H1975; assay type: cell-based; details: NCI-H1975, NSCLC
Excerpt: Table 1 and Table 2 Notes: in general regression and stable disease correlated with the in vitro cytotoxicity and MT1-MMP expression. Female BALB/c mice n=3/group animals dosed twice per week except EBC-1 three per week. Tumor growth inhibition (TGI) (%)=[1−(Ti−T0)/(Vi−V0)]×100; Ti is the average tumor volume of a treatment group on a given day, TO is the average tumor volume of the treatment group on the day of treatment start, Vi is the average tumor volume of vehicle control group on the same day with Ti, and V0 is the average tumor volume of vehicle group on the day of treatment start. A one-way ANOVA was performed to compare tumor volume among groups, and when a significant F-statistics (a ratio of treatment variance to the error variance) was obtained, comparisons between groups were carried out with Games-Howell test. All data were analyzed using GraphPad Prism.* p<0.05, ** p<0.01, *** p<0.001. In vitro cytotoxicity was measured by CellTiter-Glo®, MT1-MMP membrane H score from immunohistochemistry staining, NM not measured. Tumor size on Day 1 of dosing.

[7] = Stability in whole blood in vitro, mouse; assay type: in vitro ADME; details: 37° C.
Protocol: as §2

[8] = Plasma protein binding, dog; assay type: in vitro ADME; details: read-out: free fraction
Protocol: as §1

[9] = Non-GLP toxicity studies, dog; assay type: in vivo
Excerpt: These include in vitro tissue microarray in human, rat and monkey tissues and in vitro and in vivo assessment of immunogenicity. In vivo assessments include single dose toxicity in mice and rats, multiple dose range finding studies in mice, rats, dogs and monkeys (non-GLP) and GLP-compliant multiple dose studies in rats and monkeys consisting of 28-day on study phase with a 28-day recovery period.

[10] = Repeat dose toxicokinetics, rat and monkey; assay type: in vivo; details: both sexes, plasma, intravenous, rat or monkey, irrespective of dose, read-out: Plasma t1/2
Excerpt: In a repeat dose experiment with BT1718 no significant gender-related differences in the TK parameters for the rat or monkey were noted. Exposure in both the rat and monkey increased approximately linearly with dose and was maintained for 28 days on repeat dosing. […] Plasma clearance and volume of distribution were similar across BT1718 dose and consistent with the PK studies.

[11] = CNS behavioral model (Irwin study); assay type: in vivo; details: single dose 0.2, 0.5 or 1 mg/kg, rats
Protocol: As part of the Good Laboratory Practice (GLP)-compliant toxicity studies, a core battery of safety pharmacology tests were performed. […] Electrocardiogram (ECG) and respiratory plethysmography measurements were taken in monkeys dosed at 0.2, 0.5, 1 and 1.5 mg/kg (2.4, 6, 12 and 18 mg/m^2 respectively) twice weekly on Day 4, Day 22 (following 2nd and 7th dose) and in the recovery period (for animals dosed with 0, 6 and 12 mg/m^2 twice weekly). Blood pressure (BP) measurements were also evaluated in the same monkeys on Day 1 and Day 25 and in the recovery period. […] It is therefore concluded that BT1718 has no cardiac, respiratory or behavioral liability at the doses and schedule tested in the GLP toxicity studies.

[12] = Total DM1 in plasma and urine / excretion (preclinical); assay type: in vivo
Protocol: Efficacy in this model was reduced in the conjugates containing the least cleavable linkers. […] Effective treatment was also seen with same total dose, given at on schedules from daily to a single weekly dose.
The concentration of total DM1 in plasma and urine was also measured following a reduction step, to detect DM1 in BT1718, any peptidyl-DM1 metabolites of BT1718, other DM1-containing mixed disulfides and free DM1. The level of total DM1 in plasma and urine increased with increasing dose, with about 85% of the total DM1 recovered in urine within 48 hours of BT1718 administration. […] An assay for free DM1 has not been successfully developed due to the instability of the free thiol in biological matrices.

[13] = dogs 1 mg/kg, 20 mg/m^2 twice weekly

## COc1cc2cc(c1Cl)N(C)C(=O)C[C@H](OC(=O)[C@H](C)N(C)C(=O)CCSSC(C)CCC(=O)NCCC(=O)N(C)CC(=O)N(C)CC(=O)N(C)CC(=O)N(C)CC(=O)N(C)CC(=O)N(C)CC(=O)N(C)CC(=O)N(C)CC(=O)N(C)CC(=O)N(C)CC(=O)N[C@@H](C)C(=O)N[C@H]1CSCc3cc4cc(c3)CSC[C@H](NC(=O)[C@@H](C)NC(=O)[C@H](Cc3cccc5ccccc35)NC(=O)[C@H](CCC(=O)O)NC(=O)[C@H](CC(N)=O)NC(=O)[C@@H](C)NC1=O)C(=O)N[C@@H](CCC(=O)O)C(=O)N[C@@H](CC(=O)O)C(=O)N[C@@H](Cc1ccccc1)C(=O)N[C@@H](Cc1ccc(O)cc1)C(=O)N[C@@H](CC(=O)O)C(=O)N[C@@H](C(C)(C)C)C(=O)N[C@H](C(N)=O)CSC4)[C@]1(C)O[C@H]1[C@H](C)[C@@H]1C[C@@](O)(NC(=O)O1)[C@H](OC)/C=C/C=C(\C)C2 (some centres unmarked) [BT1718] ({X1-βAla}-[Sar][Sar][Sar][Sar][Sar][Sar][Sar][Sar][Sar][Sar]AC[dA]NE[1Nal][dA]CEDFYD[Tle]C-NH2; linker 12-18-25 via TBMB (inferred))
[1]
  half-life: 15 to 30 min
[2]
  fraction unbound: 0.038
[3]
  Ki: 1.75 ± 0.92 nM
[4]
  half-life: > 300 min
[5]
  half-life: > 360 min
[6]
  IC50: 19.7 nM
[7]
  half-life: > 1440 min
[8]
  fraction unbound: 0.015
[9]; dog 1 mg/kg (20 mg/m^2) twice weekly
  GI findings: Slight to moderate small intestinal degeneration
[9]; dog, 14 mg/m^2 twice weekly
  bladder findings: Bladder epithelial degeneration
[9]; [13]
  hepatic findings: Elevated liver enzymes
  peripheral haematology: significant decreases in WBCs
  renal findings: Moderate renal tubule degeneration and epithelial mitosis
[10]
  half-life: 12 to 33.6 min
[11]
  CNS behavioral effects (Irwin study): No effects
[12]; preliminary metabolism studies
  route of excretion: excreted mainly through the kidney in urine
[12]; within 48 hours of BT1718 administration
  total DM1 recovered in urine: about 85%
